The assay deals with venoms of different snake species. The class given is binding.

B1: VHH candidate against cobrotoxin: camelid (llama) single-domain VHH antibody binding cobrotoxin, SEQ ID NO 4 (protein)
VHH: MAQVQLQESGGGLAQAGGSLRLSCSASRNIFRVYGWYRQAPGKQREWVASITRDDSTAYADSVKGRFTISRDSAKNTMYLQMSSLRLEDTSTYYCAAQSISGTIQWGQGTQVTVSSTSGPGGQHHHHHHGAEQKLISEEDLS
In the case of B1, the “number of venoms of different snake species bound (ELISA)” value is on record as “at least 6”.

The record behind these values is patent US11028159B2 (priority 2017, dated 2021).
